Several values for one entry are separate records, joined by “and”; a condition that tells them apart may be missing. Identical values can stand only once. Like-named read-outs stand apart in the source and are kept apart here.
Experiments:
[1] = test system: affinity purified β2GPI-dependent antiphospholipid antibody; assay: Direct binding ELISA, nickel chelate-coated wells charged with recombinant β2GPI proteins (no cardiolipin); set-up: species or system human; details: O.D. at 550 nm
In short: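 His-tagged recombinant β2GPI mutants captured on nickel chelate wells in serial dilution (2 h, room temperature), no anionic phospholipid; GST-6his as negative control. Affinity-purified patient antibodies (11 patients) or rabbit anti-β2GPI detected by alkaline phosphatase anti-IgG, OD 550 nm.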

[2] = test system: affinity purified β2GPI-dependent antiphospholipid antibody; assay: Competitive inhibition ELISA: recombinant β2GPI proteins compete for antibody binding to coated full length recombinant β2GPI; set-up: species or system human; details: for IC50: read-out: 50% (concentration to give 50% inhibition)
In short: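 Wells coated with full-length recombinant β2GPI (10 μg/ml, pH 9.5) and milk-blocked. Serially diluted recombinant β2GPI proteins were co-incubated with a fixed concentration of patient antibody for 1 h at 37 °C. Bound IgG detected with alkaline phosphatase anti-human IgG at OD550; percent inhibition is background-corrected against inhibitor-free wells.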

rabbit anti-β2GPI = assay: Direct binding ELISA, nickel chelate-coated wells, rabbit antibody; details: O.D. at 550 nm
Protocol: Nickel Chelate-coated microwell plates (NCP 010 00 Xenopore Corp. 374 Midland Ave. Saddle Brook, N.J. USA) were coated with 50 μl of serial dilutions of the various recombinant β2GPI, in PBS, at room temperature for 2 hours. The plates were washed three times with PBS and blocked with 75 μl of a 1% gelatin (Sigma #G-2500) in PBS for one hour room temperature. […] The plates were washed three times with PBS, 50 μl of alkaline phosphatase conjugated anti-immunoglobulin (anti-human IgG, gamma chain specific, Zymed #62-8422) or anti-rabbit IgG (Zymed #62-6122) diluted appropriately in 1% gelatin was added and incubated at 37° C. for one hour. The plates were washed three times with PBS, 50 μl of alkaline phosphatase PPMP chromogenic substrate solution was added and incubated for 30 minutes at room temperature. The optical density, at 550 nm, was determined by reading the plates in a microplate autoreader (Bio-Teck Instruments, model EL311).
Seven to nine different recombinant β2GPI mutant proteins were examined to determine if they could support the direct binding of affinity purified β2GPI-dependent antiphospholipid antibody preparations in the absence of anionic phospholipid. All recombinant mutant β2GPI were assayed with affinity purified β2GPI-dependent antiphospholipid antibody preparations from 11 different patients. Each mutant recombinant β2GPI protein was tested, in a dose dependent fashion and GST-6his was included as a negative control. The recombinant mutant β2GPI proteins were bound to nickel coated microtiter plates via their 6-his tail. All recombinant mutant β2GPI proteins tested bound rabbit anti-β2GPI showing that they were assessable by antibody (FIG. 5).

B1: 12345: recombinant full length human β2GPI (domains 1-5) with C-terminal GlyHis6, baculovirus expressed (protein)
chain: GRTCPKPDDLPFSTVVPLKTFYEPGEEITYSCKPGYVSRGGMRKFICPLTGLWPINTLKCTPRVCPFAGILENGAVRYTTFEYPNTISFSCNTGFYLNGADSAKCTEEGKWSPELPVCAPIICPPPSIPTFATLRVYKPSAGNNSLYRDTAVFECLPQHAMFGNDTITCTTHGNWTKLPECREVKCPFPSRPDNGFVNYPAKPTLYYKDKATFGCHDGYSLDGPEEIECTKLGNWSAMPSCKASCKLPVKKATVVYQGERVKIQEKFKNGMLHGDKVSFFCKNKEKKCSYTEDAQCIDGTIEVPKCFKEHSSLAFWKTDASDVKPCGHHHHHH
[1]; Ab 6203
  Maximum O.D.: 1.270
[1]; Ab 6501
  Maximum O.D.: 1.772
[1]; Ab 6626
  Maximum O.D.: 1.527
[1]; Ab 6632
  Maximum O.D.: 1.419
[1]; Ab 6641
  Maximum O.D.: 2.555
[1]; Ab 6644
  Maximum O.D.: 1.848
[1]; Ab 6652
  Maximum O.D.: 0.640
[1]; Ab 6701
  Maximum O.D.: 0.948
[1]; Ab 7008
  Maximum O.D.: 1.380
[1]; Ab 7015
  Maximum O.D.: 1.864
[1]; Ab 7101
  Maximum O.D.: 1.257
[2]; Ab 6203
  Max (maximum inhibition observed at concentrations tested): 75%
  IC50: 0.8 µM
[2]; Ab 6501
  Max (maximum inhibition observed at concentrations tested): 80%
  IC50: 0.2 µM
[2]; Ab 6509
  Max (maximum inhibition observed at concentrations tested): 70%
  IC50: 0.1 µM
[2]; Ab 6626
  Max (maximum inhibition observed at concentrations tested): 80%
  IC50: 0.3 µM
[2]; Ab 6632
  Max (maximum inhibition observed at concentrations tested): 90%
  IC50: 0.8 µM
[2]; Ab 6641
  Max (maximum inhibition observed at concentrations tested): 96%
  IC50: 0.1 µM
[2]; Ab 6644
  Max (maximum inhibition observed at concentrations tested): 90%
  IC50: 0.2 µM
[2]; Ab 6652
  Max (maximum inhibition observed at concentrations tested): 95%
  IC50: 0.8 µM
[2]; Ab 6701
  Max (maximum inhibition observed at concentrations tested): 100%
  IC50: 0.1 µM
[2]; Ab 7008
  Max (maximum inhibition observed at concentrations tested): 90%
  IC50: 0.2 µM
[2]; Ab 7015
  Max (maximum inhibition observed at concentrations tested): 90%
  IC50: 0.2 µM
[2]; Ab 7101
  Max (maximum inhibition observed at concentrations tested): 80%
  IC50: 0.8 µM
[2]; Ab 7104
  Max (maximum inhibition observed at concentrations tested): 90%
  IC50: 0.8 µM
Rabbit anti-β2GPI
  Maximum O.D.: 2.065

B2: 1----: recombinant β2GPI protein with domain 1 only (SEQ ID NO:4 region), His6 tail (protein)
chain: GRTCPKPDDLPFSTVVPLKTFYEPGEEITYSCKPGYVSRGGMRKFICPLTGLWPINTLKCTPRVGHHHHHH
[1]; Ab 6203
  Maximum O.D.: 1.029
[1]; Ab 6501
  Maximum O.D.: 0.911
[1]; Ab 6626
  Maximum O.D.: 0.560
[1]; Ab 6632
  Maximum O.D.: 0.351
[1]; Ab 6641
  Maximum O.D.: 0.252
[1]; Ab 6644
  Maximum O.D.: 0.493
[1]; Ab 6652
  Maximum O.D.: 0.262
[1]; Ab 6701
  Maximum O.D.: 0.388
[1]; Ab 7008
  Maximum O.D.: 0.195
[1]; Ab 7015
  Maximum O.D.: 1.102
[1]; Ab 7101
  Maximum O.D.: 0.804
[2]; Ab 6203
  Max (maximum inhibition observed at concentrations tested): 60%
  IC50: > 10 µM
[2]; Ab 6203, listed as 1 - - - -
  Max (maximum inhibition observed at concentrations tested): 20%
[2]; Ab 6501
  Max (maximum inhibition observed at concentrations tested): 70%
[2]; Ab 6501, listed as 1 - - - -
  Max (maximum inhibition observed at concentrations tested): 30%
  IC50: > 10 µM
[2]; Ab 6626
  Max (maximum inhibition observed at concentrations tested): 85%
  IC50: 8 µM and > 10 µM
[2]; Ab 6626, listed as 1 - - - -
  Max (maximum inhibition observed at concentrations tested): 50%
  IC50: > 10 µM
[2]; Ab 6632
  Max (maximum inhibition observed at concentrations tested): 90%
  IC50: 8 µM
[2]; Ab 6632, listed as 1 - - - -
  Max (maximum inhibition observed at concentrations tested): 70%
  IC50: 3 µM
[2]; Ab 6641
  Max (maximum inhibition observed at concentrations tested): 98%
  IC50: > 10 µM
[2]; Ab 6644
  Max (maximum inhibition observed at concentrations tested): 90%
  IC50: 8 µM and > 10 µM
[2]; Ab 6644, listed as 1 - - - -
  Max (maximum inhibition observed at concentrations tested): 45%
  IC50: > 10 µM
[2]; Ab 6701
  Max (maximum inhibition observed at concentrations tested): 80%
  IC50: 4 µM
[2]; Ab 7008
  Max (maximum inhibition observed at concentrations tested): 70%
  IC50: > 10 µM
[2]; Ab 7008, listed as 1 - - - -
  Max (maximum inhibition observed at concentrations tested): 40%
[2]; Ab 7015
  Max (maximum inhibition observed at concentrations tested): 90%
  IC50: 8 µM and > 10 µM
[2]; Ab 7015, listed as 1 - - - -
  Max (maximum inhibition observed at concentrations tested): 30%
  IC50: > 10 µM
[2]; Ab 7101
  Max (maximum inhibition observed at concentrations tested): 70%
  IC50: 8 µM and > 10 µM
[2]; Ab 7101, listed as 1 - - - -
  Max (maximum inhibition observed at concentrations tested): 20%
  IC50: > 10 µM
[2]; Ab 7104
  Max (maximum inhibition observed at concentrations tested): 90%
  IC50: 0.8 µM
Rabbit anti-β2GPI
  Maximum O.D.: 1.9737

B3: recombinant β2GPI domain 5 with GlyHis6 (----5) (protein)
chain: GRASCKLPVKKATVVYQGERVKIQEKFKNGMLHGDKVSFFCKNKEKKCSYTEDAQCIDGTIEVPKCFKEHSSLAFWKTDASDVKPCGHHHHHH
[1]; Ab 6203
  Maximum O.D.: 0.044
[1]; Ab 6501
  Maximum O.D.: 0.004
[1]; Ab 6626
  Maximum O.D.: 0.028
[1]; Ab 6632
  Maximum O.D.: 0.013
[1]; Ab 6641
  Maximum O.D.: 0.018
[1]; Ab 6644
  Maximum O.D.: 0.017
[1]; Ab 6652
  Maximum O.D.: 0.012
[1]; Ab 6701
  Maximum O.D.: 0.000
[1]; Ab 7008
  Maximum O.D.: 0.007
[1]; Ab 7015
  Maximum O.D.: 0.078
[1]; Ab 7101
  Maximum O.D.: 0.078
[2]; Ab 6203
  Max (maximum inhibition observed at concentrations tested): 5%
  IC50: > 47 µM
[2]; Ab 6501
  Max (maximum inhibition observed at concentrations tested): 10%
  IC50: > 47 µM
[2]; Ab 6509
  Max (maximum inhibition observed at concentrations tested): 10%
  IC50: > 47 µM
[2]; Ab 6626
  Max (maximum inhibition observed at concentrations tested): 10%
  IC50: > 47 µM
[2]; Ab 6632
  Max (maximum inhibition observed at concentrations tested): 10%
  IC50: > 47 µM
[2]; Ab 6641
  Max (maximum inhibition observed at concentrations tested): 10%
  IC50: > 47 µM
[2]; Ab 6644
  Max (maximum inhibition observed at concentrations tested): 10%
  IC50: > 47 µM
[2]; Ab 6652
  Max (maximum inhibition observed at concentrations tested): 15%
  IC50: > 47 µM
[2]; Ab 6701
  Max (maximum inhibition observed at concentrations tested): 10%
  IC50: > 47 µM
[2]; Ab 7008
  Max (maximum inhibition observed at concentrations tested): 20%
  IC50: > 47 µM
[2]; Ab 7015
  Max (maximum inhibition observed at concentrations tested): 10%
  IC50: > 47 µM
[2]; Ab 7101
  Max (maximum inhibition observed at concentrations tested): 5%
  IC50: > 47 µM
[2]; Ab 7104
  Max (maximum inhibition observed at concentrations tested): 0%
  IC50: > 47 µM
Rabbit anti-β2GPI
  Maximum O.D.: 1.663

Source: patent US6858210B1, “Therapeutic and diagnostic domain 1 β2GPI polypeptides and methods of using same” (La Jolla Pharmaceutical Co., priority 1998, dated 2005)
